From patent US20140289906A1, “Compositions Having Dicamba Decarboxylase Activity and Methods of Use” (priority 2013, published 2014) come the findings set out here.

Substitutions are numbered along the chain they refer to. Numbers in names are those of the source. Entries after “also recorded” stand apart in the source; their conditions may differ.

Sequences and labels used below:
B1: 109 (protein)
chain: MAQGKVALEEHFAIPETLQDSAGFVPGDYWKELQHRLLDIQDTRLKLMDAHGIETMILSLNAPAVQAIPDRRKAIEIARRANDVLAEECAKRPDRFLAFAALPLQDPDAATEELQRCVNDLGFVGALVNGFSQEGDGQTPLYYDLPQYRPFWGEVEKLDVPFYLHPRNPLPQDSRIYDGHPWLLGPTWAFAQETAVHALRLMASGLFDEHPRLNIILGHMGEGLPYMMWRIDHRVAWVKLPPRYPAKRRFMDYFNENFHITTSGNFRTQTLIDAILEIGADRILFSTDWPFENIDHASDWFNATSIAEADRVKIGRTNARRLFKLDGA
modifications: Dicamba decarboxylase variant clone DC.4.032
B2: 110 (protein)
chain: B1 chain with A22M, Q34M, V235M
modifications: Dicamba decarboxylase variant clone DC.4.111
B3: 113 (protein)
chain: B1 chain with W30L, Q34F
modifications: Dicamba decarboxylase variant clone DC.4.114
B4: 111 (protein)
chain: B1 chain with A22M, Q34M, V235M, V238I
modifications: Dicamba decarboxylase variant clone DC.4.112
B5: 112 (protein)
chain: B1 chain with Q34V
modifications: Dicamba decarboxylase variant clone DC.4.113
B6: G27S: point mutation of SEQ ID NO:109 (protein)
chain: B1 chain with G27S
modifications: Dicamba decarboxylase variant clone DC.4.032
B7: D42A: point mutation of SEQ ID NO:109 (protein)
chain: B1 chain with D42A
modifications: Dicamba decarboxylase variant clone DC.4.032
B8: D42S: point mutation of SEQ ID NO:109 (protein)
chain: B1 chain with D42S
modifications: Dicamba decarboxylase variant clone DC.4.032
B9: D42M: point mutation of SEQ ID NO:109 (protein)
chain: B1 chain with D42M
modifications: Dicamba decarboxylase variant clone DC.4.032
B10: G327Q: point mutation of SEQ ID NO:109 (protein)
chain: B1 chain with G327Q
modifications: Dicamba decarboxylase variant clone DC.4.032
B11: G52E: point mutation of SEQ ID NO:109 (protein)
chain: B1 chain with G52E
modifications: Dicamba decarboxylase variant clone DC.4.032
B12: A328D: point mutation of SEQ ID NO:109 (protein)
chain: B1 chain with A328D
modifications: Dicamba decarboxylase variant clone DC.4.032
B13: G27A: point mutation of SEQ ID NO:109 (protein)
chain: B1 chain with G27A
modifications: Dicamba decarboxylase variant clone DC.4.032
B14: L38I: point mutation of SEQ ID NO:109 (protein)
chain: B1 chain with L38I
modifications: Dicamba decarboxylase variant clone DC.4.032
B15: G27T: point mutation of SEQ ID NO:109 (protein)
chain: B1 chain with G27T
modifications: Dicamba decarboxylase variant clone DC.4.032
B16: A328R: point mutation of SEQ ID NO:109 (protein)
chain: B1 chain with A328R
modifications: Dicamba decarboxylase variant clone DC.4.032

The first data set in a line: 14C assay: 14CO2 capture from [14C]-carboxyl-labeled dicamba with purified protein. It counts as biochemical.
Details: not given
In the case of B1, the CO2 product detected result is “detected”.
Regarding B2, the CO2 product detected result is “detected”.
B3: the CO2 product detected entry is listed as “detected”.
Regarding B4, the CO2 product detected result was “detected”.
As for B5, the CO2 product detected result is given as “detected”.

Another data set in a line: LC-MS/MS detection of 4-chloro-3-methoxy phenol. It counts as biochemical. Particulars: purified protein, dicamba. The procedure: The decarboxylated and chloro hydrolyzed product, 4-chloro-3-methoxy phenol (FIG. 1D), is measured using a LC-MS/MS analytical procedure. […] 10 ul is removed from the reaction mixture and mixed with 90 ul pre-chilled methanol followed by centrifugation at 14,000 rpm for 15 min at 4° C. 10 ul of the supernatant is then transferred into 170 ul ddH2O to achieve 5% methanol solution for injection. 50 ul of the prepared sample is injected into a 4000 Q Trap LC-MS/MS system for sample analysis. LC-MS/MS parameters are: Mobile Phase A, 2 mM ammonium acetate in water; Mobile Phase B, 2 mM ammonium acetate in methanol; Column, Aquasil, 100×2.1 mm, 3 μm, C18 column; Flow Rate, 0.6 ml/min. The MS/MS fragment 157/142 which is common to 4-chloro-3-methoxy phenol, 2-chloro-5-methoxy phenol, and 3-chloro-5-methoxy phenol is monitored at a retention time of 2.88 min.
B1: the “4-chloro-3-methoxy phenol product detected” value was “detected”.
Take B2: the “4-chloro-3-methoxy phenol product detected” value was “detected”.
With B3, the “4-chloro-3-methoxy phenol product detected” value is on record as “detected”.
As for B4, the “4-chloro-3-methoxy phenol product detected” value is on record as “detected”.
Same read-out and setting: then B5, with “detected”.

A further data set is described as follows: GC/MS detection of 2,5-dichloro phenol (2,5-DCP); kinetic determination. In kind it is biochemical. Particulars: purified protein, dicamba. On the procedure: The decarboxylated and demethylated product of dicamba, 2,5-dichloro phenol or 2,5-DCP (FIG. 1E) is measured using a GC/MS analytical procedure with either liquid injection after liquid/liquid extraction using toluene as the extraction solvent or gas injection using head space method. The head space sample analysis is carried out on an Agilent GC/MS system with a 6890A GC, a 5973N MSD and a CTC CombiPAL auto-sampler or with a 7890A GC, a 5975C MSD and an Agilent GC Sampler 80 auto-sampler with Phenomenex ZB-MultiResidue-1 column (30 m length, 0.25 mm diameter, 0.25 um film) or equivalent. GC/MS parameters are: GC inlet temperature, 200° C.; Carry gas, helium in constant flow mode (1.2 mL/min); Oven temperature program, 70° C. for 1 min and then ramp to 275° C. at 40° C./min. […] The reaction vial is transferred to a agitator for incubation at 90° C. for 4 min at 500 rpm. With a syringe preheated at 110° C., 1000 uL of head space is injected with sample fill speed at 100 uL/sec. A 2-mm diameter liner is used in sample inlet. The MS data acquisition is done in SIM (selected ion monitoring) mode. The positive ion at M/Z 162 for the molecular ion of 2,-5-DCP is monitored at retention time of 4.06 min. Solvent delay for MS acquisition is set at 3 min. GC/MS parameters for liquid sample analysis are the same as those for head space analysis, except that the volume of liquid injection is 1 uL.
For the molecule B1, the “2,5-DCP product detected” value is “detected”.
As for B2, the “2,5-DCP product detected” value is given as “detected”.
Same read-out and setting: then B3, with “detected”.
With B4, the “2,5-DCP product detected” value is listed as “detected”.
With B5, the “2,5-DCP product detected” value is listed as “detected”.

A short description of another data set: Saturation mutagenesis of SEQ ID NO:109: dicamba decarboxylation activity of point mutants (Table 7). The following applies: dicamba decarboxylation activity of point mutants of SEQ ID NO: 109 from NNK saturation mutagenesis; 0.7-fold used as cut-off.
For B6, the “Average Activity (Fold of SEQ ID NO: 109)” value is listed as 2.2 Fold of SEQ ID NO: 109.
The same measure, in the same setting: then B7, with 2.0 Fold of SEQ ID NO: 109.
Still for that read-out and setting: the figure for B8 is 2.0 Fold of SEQ ID NO: 109; for B9 it is 2.4 Fold of SEQ ID NO: 109.
Take B10: the “Average Activity (Fold of SEQ ID NO: 109)” value is on record as 2.8 Fold of SEQ ID NO: 109.
With B11, the “Average Activity (Fold of SEQ ID NO: 109)” value is reported as 3.1 Fold of SEQ ID NO: 109.
Regarding B12, the “Average Activity (Fold of SEQ ID NO: 109)” value is recorded as 2.3 Fold of SEQ ID NO: 109.
As for B13, the “Average Activity (Fold of SEQ ID NO: 109)” value is recorded as 2.0 Fold of SEQ ID NO: 109.
For B14, the “Average Activity (Fold of SEQ ID NO: 109)” value was 2.0 Fold of SEQ ID NO: 109.
On to B15, for which the “Average Activity (Fold of SEQ ID NO: 109)” value is on record as 2.0 Fold of SEQ ID NO: 109.
As to B16, the “Average Activity (Fold of SEQ ID NO: 109)” value is 3.0 Fold of SEQ ID NO: 109.

Staying with this data set, now noted: point mutant of SEQ ID NO:109; dicamba decarboxylation activity relative to the unchanged template.
B6: the “Average Activity (Fold of SEQ ID NO: 109)” value was 2.2 Fold of SEQ ID NO: 109.
The same measure, in the same setting: the figure for B9 is 2.4 Fold of SEQ ID NO: 109; for B10 it is 2.8 Fold of SEQ ID NO: 109.
Same read-out and setting: then B11, with 3.1 Fold of SEQ ID NO: 109.
On to B12, for which the “Average Activity (Fold of SEQ ID NO: 109)” value is recorded as 2.3 Fold of SEQ ID NO: 109.
Consider B14, for which the “Average Activity (Fold of SEQ ID NO: 109)” value is listed as 2.0 Fold of SEQ ID NO: 109.

The nature of another data set: Dicamba decarboxylation activity of computationally designed protein variants and parents (Tables 4, 5). The following applies: native proteins and designed variants; assay not specified.
With B1, the “dicamba decarboxylase activity (statement in the description)” value (from here on “dicamba decarboxylase activity”) is reported as “more active than their parent sequence; also recorded: displays an increase in dicamba decarboxylase activity”.
With B2, the “dicamba decarboxylase activity” value is “displays an increase in dicamba decarboxylase activity”.
Same read-out and setting: then B3, with “displays an increase in dicamba decarboxylase activity”.
On the same count and under the same terms, then B4, with “displays an increase in dicamba decarboxylase activity”.
B5: the “dicamba decarboxylase activity” value is “displays an increase in dicamba decarboxylase activity”.

A short description of another data set: 14C assay: 14CO2 capture from [14C]-carboxyl-labeled dicamba with IPTG-induced recombinant E. coli cells. Particulars: dicamba decarboxylation activity.
B1: the “Enzymatic Detection level” value is given as “High”.
For the molecule B2, the “Enzymatic Detection level” value is given as “High”.
Still for that read-out and setting: then B3, with “High”; and B4, with “High”; and B5, with “High”.
